The values below come from patent publication US20210002376A1 (UNIVERSIT T STUTTGART, published 2021).

The target of one test is T1, EGFR-Fc fusion protein (UniProt P00533 25-645).
T1 construct: range 25-645; Coated antigen in ELISA; not shown: Fc part of the fusion, not described
The experiment in a line: ELISA, coated EGFR-Fc, anti-human Fab-HRP. On the technique in general: In an ELISA, binding on a coated surface is turned into a signal by an enzyme label.

Test [1] has as its target T2, HER3-Fc fusion protein (UniProt P21860 21-643).
T2 construct: range 21-643; Coated antigen in ELISA; not shown: Fc part of the fusion, not described
The test is described as follows: ELISA, coated HER3-Fc, anti-human Fab-HRP.

Test [2] deals with T3, HER3 (on tumor cells) (UniProt P21860 20-1342, limits assumed).
T3 construct: whole, on cells; also called HER3 on MCF-7, SKBR-3 (SKBR3) and FaDu cells
The test is described as follows: flow cytometry on HER3-positive MCF-7 cells.

Test [3] has as its target T4, HER3-His (UniProt P21860 21-643).
T4 construct: range 21-643; also called His-tagged HER3; second antigen
The test is described as follows: simultaneous binding ELISA: coated EGFR-Fc, Db titrated, HER3-His 300 nM added, anti-His-HRP.

A further test has as its target T5, EGFR-His (UniProt P00533 25-645).
T5 construct: range 25-645; also called His-tagged EGFR
The test is described as follows: ELISA, coated His-tagged EGFR ECD, anti-human Fc-HRP.

Test [4] has as its target T4, HER3-His. The test is described as follows: ELISA, coated His-tagged HER3 ECD, anti-human Fc-HRP.
Test [5] deals with T4, HER3-His. The experiment in a line: simultaneous binding ELISA: coated EGFR-Fc, Db titrated, HER3-His 300 nM added, anti-His-HRP. This is another data set of the same source.
The target of test [6] is T4, HER3-His. The description is as above. This is another data set of the same source.
In a further test the target is T6, CD3 (on Jurkat cells) (UniProt P07766 23-207).
T6 construct: whole, on cells; CD3 is a complex of several chains; only CD3 is printed; also called CD3-positive Jurkat cells; CD3-expressing cells (Jurkat)
The test is described as follows: flow cytometry on CD3-expressing Jurkat cells. For orientation: In flow cytometry, cells or beads pass a laser one at a time.

Test [7] addresses T3, HER3 (on tumor cells). The test is described as follows: flow cytometry on HER3-expressing SKBR-3 cells.
Test [8] has as its target T4, HER3-His. The test is described as follows: simultaneous binding, flow cytometry: molecule titrated on CD3-positive Jurkat cells, HER3-His 300 nM added, PE anti-His.
In test [9] the target is T3, HER3 (on tumor cells). The test is described as follows: flow cytometry on FaDu cells.
Test [10] addresses T3, HER3 (on tumor cells). The experiment in a line: flow cytometry on MCF-7 cells.
In test [11] the target is T3, HER3 (on tumor cells). The experiment in a line: flow cytometry on SKBR-3 cells.
Test [12] deals with T2, HER3-Fc fusion protein. The experiment in a line: ELISA, coated HER3-Fc, anti-human Fab-HRP. This is another data set of the same source.
The target of test [13] is T3, HER3 (on tumor cells). The experiment in a line: flow cytometry on FaDu cells. The source holds these as a separate data set.
Test [14] deals with T3, HER3 (on tumor cells). The experiment in a line: flow cytometry on MCF-7 cells. The source holds these as a separate data set.
The target in test [15] is T3, HER3 (on tumor cells). The test is described as follows: flow cytometry on SKBR-3 cells. This is another data set of the same source.

Where two headings read alike, the source gives them in different places.

T6 sequence (P07766 23-207): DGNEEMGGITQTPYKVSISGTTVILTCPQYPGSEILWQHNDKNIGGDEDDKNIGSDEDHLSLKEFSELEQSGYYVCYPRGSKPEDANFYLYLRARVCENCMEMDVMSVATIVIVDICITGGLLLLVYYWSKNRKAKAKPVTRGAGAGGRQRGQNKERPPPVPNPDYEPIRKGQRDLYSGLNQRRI

B1: Db3-43xhu225-Ig (bispecific antibody, human IgG1, kappa)
heavy: EVQLVESGGGLVQPGGSLRLSCAASGFSLTNYGVHWVRQAPGKGLEWLGVIWSGGNTDYNTPFTSRFTISRDNSKNTLYLQMNSLRAEDTAVYYCARALTYYDYEFAYWGQGTTVTVSSGGGGSQAGLTQPPAVSVAPGQTASITCGRDNIGSRSVHWYQQKPGQAPVLVVYDDSDRPAGIPERFSGSNYENTATLTISRVEAGDEADYYCQVWGITSDHVVFGGGTKLTVLASTKGPSVFPLAPSSKSTSGGTAALGCLVKDYFPEPVTVSWNSGALTSGVHTFPAVLQSSGLYSLSSVVTVPSSSLGTQTYICNVNHKPSNTKVDKKVEPKSCDKTHTCPPCPAPPVAGPSVFLFPPKPKDTLMISRTPEVTCVVVDVSHEDPEVKFNWYVDGVEVHNAKTKPREEQYNSTYRVVSVLTVLHQDWLNGKEYKCKVSNKGLPSSIEKTISKAKGQPREPQVYTLPPSRDELTKNQVSLTCLVKGFYPSDIAVEWESNGQPENNYKTTPPVLDSDGSFFLYSKLTVDKSRWQQGNVFSCSVMHEALHNHYTQKSLSLSPGK
light: QVQLQQSGPGLVKPSQTLSLTCAISGDSVSSNRAAWNWIRQSPSRGLEWLGRTYYRSKWYNDYAQSLKSRITINPDTPKNQFSLQLNSVTPEDTAVYYCARDGQLGLDALDIWGQGTMVTVSSGGGGSDIQLTQSPSFLSASVGDRVTITCRASQSIGTNIHWYQQKPGKAPKLLIKYASESISGVPSRFSGSGSGTEFTLTISSLQPEDFATYYCQQNNNWPTTFGAGTKLEIKRTVAAPSVFIFPPSDEQLKSGTASVVCLLNNFYPREAKVQWKVDNALQSGNSQESVTEQDSKDSTYSLSSTLTLSKADYEKHKVYACEVTHQGLSSPVTKSFNRGEC
notes: also called bispecific, tetravalent Diabody-Ig targeting EGFR (hu225) and HER3 (3-43) using CH1 and CL; DbEGFRxHER3-Ig
Turning to B1, the EC50 worked out at 0.43 nM in the test with EGFR-Fc fusion protein, 0.34 nM with HER3-Fc fusion protein [1], 0.054 nM in the test with HER3 (on tumor cells) [2] and 0.85 nM in the test with HER3-His [3].

B2: Db3-43xhu225-MHD2-Fc (bispecific antibody)
heavy: EVQLVESGGGLVQPGGSLRLSCAASGFSLTNYGVHWVRQAPGKGLEWLGVIWSGGNTDYNTPFTSRFTISRDNSKNTLYLQMNSLRAEDTAVYYCARALTYYDYEFAYWGQGTTVTVSSGGGGSQAGLTQPPAVSVAPGQTASITCGRDNIGSRSVHWYQQKPGQAPVLVVYDDSDRPAGIPERFSGSNYENTATLTISRVEAGDEADYYCQVWGITSDHVVFGGGTKLTVLASAELPPKVSVFVPPRDGFFGNPRKSKLICQATGFSPRQIQVSWLREGKQVGSGVTTDQVQAEAKESGPTTYKVTSTLTIKESDWLGQSMFTCRVDHRGLTFQQNASSMCVPDDKTHTCPPCPAPPVAGPSVFLFPPKPKDTLMISRTPEVTCVVVDVSHEDPEVKFNWYVDGVEVHNAKTKPREEQYNSTYRVVSVLTVLHQDWLNGKEYKCKVSNKGLPSSIEKTISKAKGQPREPQVYTLPPSRDELTKNQVSLTCLVKGFYPSDIAVEWESNGQPENNYKTTPPVLDSDGSFFLYSKLTVDKSRWQQGNVFSCSVMHEALHNHYTQKSLSLSPGK
light: QVQLQQSGPGLVKPSQTLSLTCAISGDSVSSNRAAWNWIRQSPSRGLEWLGRTYYRSKWYNDYAQSLKSRITINPDTPKNQFSLQLNSVTPEDTAVYYCARDGQLGLDALDIWGQGTMVTVSSGGGGSDIQLTQSPSFLSASVGDRVTITCRASQSIGTNIHWYQQKPGKAPKLLIKYASESISGVPSRFSGSGSGTEFTLTISSLQPEDFATYYCQQNNNWPTTFGAGTKLEIKRTAELPPKVSVFVPPRDGFFGNPRKSKLICQATGFSPRQIQVSWLREGKQVGSGVTTDQVQAEAKESGPTTYKVTSTLTIKESDWLGQSMFTCRVDHRGLTFQQNASSMCVPD
notes: homodimeric Fc part
B2: the EC50 in the test with EGFR-His was 0.23 nM; with HER3-His [4], 0.34 nM; in the test with HER3-His [5], 1.9 nM; in the test with HER3-His [6], 1.8 nM.

B3: Db3-43xhuU3-EHD2-scFv3-43-Fckih (bispecific antibody)
light: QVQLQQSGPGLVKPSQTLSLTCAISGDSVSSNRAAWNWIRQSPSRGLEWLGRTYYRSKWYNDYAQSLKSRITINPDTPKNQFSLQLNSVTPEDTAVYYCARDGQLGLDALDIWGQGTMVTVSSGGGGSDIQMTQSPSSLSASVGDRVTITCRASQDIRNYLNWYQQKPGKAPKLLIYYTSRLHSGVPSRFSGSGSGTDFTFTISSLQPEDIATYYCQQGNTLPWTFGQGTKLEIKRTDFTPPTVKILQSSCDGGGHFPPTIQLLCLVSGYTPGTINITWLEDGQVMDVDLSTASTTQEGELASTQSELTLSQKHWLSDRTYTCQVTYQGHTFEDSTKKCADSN
heavy: QVQLVQSGAEVKKPGSSVKVSCKASGGTFSGYTMNWVRQAPGQGLEWMGLINPYKGVSTYNGKFKDRVTITADKSTSTAYMELSSLRSEDTAVYYCARSGYYGDSDWYFDVWGQGTLVTVSSGGGGSQAGLTQPPAVSVAPGQTASITCGRDNIGSRSVHWYQQKPGQAPVLVVYDDSDRPAGIPERFSGSNYENTATLTISRVEAGDEADYYCQVWGITSDHVVFGGGTKLTVLASDFTPPTVKILQSSCDGGGHFPPTIQLLCLVSGYTPGTINITWLEDGQVMDVDLSTASTTQEGELASTQSELTLSQKHWLSDRTYTCQVTYQGHTFEDSTKKCADSNDKTHTCPPCPAPPVAGPSVFLFPPKPKDTLMISRTPEVTCVVVDVSHEDPEVKFNWYVDGVEVHNAKTKPREEQYNSTYRVVSVLTVLHQDWLNGKEYKCKVSNKGLPSSIEKTISKAKGQPREPQVCTLPPSRDELTKNQVSLSCAVKGFYPSDIAVEWESNGQPENNYKTTPPVLDSDGSFFLVSKLTVDKSRWQQGNVFSCSVMHEALHNHYTQKSLSLSPGK
chain: QVQLQQSGPGLVKPSQTLSLTCAISGDSVSSNRAAWNWIRQSPSRGLEWLGRTYYRSKWYNDYAQSLKSRITINPDTPKNQFSLQLNSVTPEDTAVYYCARDGQLGLDALDIWGQGTMVTVSSGGGGSGGGGSGGGGSQAGLTQPPAVSVAPGQTASITCGRDNIGSRSVHWYQQKPGQAPVLVVYDDSDRPAGIPERFSGSNYENTATLTISRVEAGDEADYYCQVWGITSDHVVFGGGTKLTVLAAADKTHTCPPCPAPPVAGPSVFLFPPKPKDTLMISRTPEVTCVVVDVSHEDPEVKFNWYVDGVEVHNAKTKPREEQYNSTYRVVSVLTVLHQDWLNGKEYKCKVSNKGLPSSIEKTISKAKGQPREPQVYTLPPCRDELTKNQVSLWCLVKGFYPSDIAVEWESNGQPENNYKTTPPVLDSDGSFFLYSKLTVDKSRWQQGNVFSCSVMHEALHNHYTQKSLSLSPGK
notes: Three different polypeptides; also called bispecific, trivalent Diabody-scFv fusion protein targeting HER3 (3-43) and CD3 (huU3)
On to B3, for which the half-maximal effective concentration (EC50) with CD3 (on Jurkat cells) stood at 8.1 nM; with HER3 (on tumor cells) [7], 0.037 nM; with HER3-His [8], 9 nM.

B4: 3M6-IgG (antibody, V domains shown)
VH: EVQLLESGGGLVQPGGSLRLSCAASGFTFSHYVMAWVRQAPGKGLEWVSSISSSGGWTLYADSVKGRFTISRDNSKNTLYLQMNSLRAEDTAVYYCTRGLKMATIFDYWGQGTLVTVSS
VL: QSALTQPASVSGSPGQSITISCTGTSSDVGSYNVVSWYQQHPGKAPKLIIYEVSQRPSGVSNRFSGSKSGNTASLTISGLQTEDEADYYCSSYAGSSIFVIFGGGTKVTVL
Take B4: the EC50 in the test with HER3 (on tumor cells) [9] worked out at 7.5 nM; with HER3 (on tumor cells) [10], 1.18 nM; with HER3 (on tumor cells) [11], 0.44 nM; with HER3-Fc fusion protein [12], 0.7 nM.

B5: 3-43-IgG (antibody, V domains shown)
VH: QVQLQQSGPGLVKPSQTLSLTCAISGDSVSSNRAAWNWIRQSPSRGLEWLGRTYYRSKWYNDYAQSLKSRITINPDTPKNQFSLQLNSVTPEDTAVYYCARDGQLGLDALDIWGQGTMVTVSS
VL: QAGLTQPPAVSVAPGQTASITCGRDNIGSRSVHWYQQKPGQAPVLVVYDDSDRPAGIPERFSGSNYENTATLTISRVEAGDEADYYCQVWGITSDHVVFGGGTKLTVL
In the case of B5, the EC50 amounted to 0.003 nM with HER3 (on tumor cells) [13], 0.021 nM with HER3 (on tumor cells) [14] and 0.022 nM in the test with HER3 (on tumor cells) [15].

A word on the EC50: it is the concentration that produces a half-maximal response.
